Measured values as given in US20240124575A1 (SIMCERE ZAIMING PHARMACEUTICAL, published 2024).

B1: C33B904 hIgG1 (antibody, V domains shown)
VH: EVQLVESGGGLVQPGRSLRLSCAASGFTFDDYAMHWVRQAPGKGLEWVSGIGWSGGSIVYADSVKGRFTISRDNAKNSLYLQMNSLRAEDTALYYCAKDSPYGDFFDYWGQGTLVTVSS
VL: DIVMTQSPDSLAVSLGERATINCKSSQTVFYSSNNKNYLAWYQQKPGQPPKLLISWASTRKSGVPDRFSGSGSGTDFTLTVSSLQAEDVAVYYCQHYYSTPYTFGQGTKLEIKR
notes: intact human IgG1; variable regions from US20190382481A1; also called C33B3904; C331B904
B2: C33B904 (antibody, human IgG1, kappa, V domains shown)
VH: B1 VH
VL: B1 VL
notes: control antibody, intact human IgG1 form; variable regions from US20190382481A1; also called C33B904 hIgG1; C331B904

How the values were obtained:
[1] = biological target: T1, human CD33-His (extracellular domain Asp 18-His 259) (human, UniProt P20138 18-259); test: ELISA, antigen coated
T1 construct: range 18-259; bought protein; also called hCD33-his; human CD33 protein; not shown: His tag
Method: (§1) In order to assay the binding activity of VHH-Fc to human CD33 protein, a human CD33-his protein (purchased from ACROBiosystems, Cat. No. CD3-H5226) was diluted with PBS to make a final concentration of 2 μg/mL, and then added into a 96-well ELISA plate at 100 μL/well. The plate was sealed with a plastic film and incubated at 4° C. overnight, washed twice with PBS the next day, and a blocking solution [PBS+2% (w/w) BSA] was added for blocking at room temperature for 2 h. The blocking solution was discarded, and VHH-Fc antibody or negative control antibody serially diluted from 100 nM was added at 50 μL/well. After incubation at 37° C. for 2 h, the plate was washed 3 times with PBS. A secondary antibody labeled with HRP (horseradish peroxidase) (purchased from Sigma, Cat. No. A0170) was added. After incubation for 1 h at 37° C., the plate was washed 5 times with PBS. A TMB substrate was added at 50 μL/well. After incubation at room temperature for 10 min, a stop solution (1.0 N HCl) was added at 50 μL/well. The OD450 nm values were read on an ELISA plate reader (Multimode Plate Reader, EnSight, purchased from Perkin Elmer). The assay results for the binding of the VHH-Fc to hCD33-his by ELISA are shown in FIGS. 7A and 7B and Tables 11 and 12. […] The IgG control was hIgG1, and the data in the table are OD450 nm values.

[2] = biological target: T1, human CD33-His (extracellular domain …); test: competitive ELISA vs coated S006-NB146-46 2ug/mL; soluble 25ug/ml
Method: VHH antibodies and control antibodies with known epitopes were subjected to epitope classification with competitive ELISA. ELISA plates were coated with 2 μg/mL antibodies according to the method in Example 5.1; the human CD33-his protein was subjected to a gradient dilution from 30 μg/mL, and EC80 values (Tables 26-27) were calculated. ELISA plates were coated with 2 μg/mL antibodies; after 25 µg/mL of antibodies to be tested were added, a human CD33-his protein having an EC80 concentration corresponding to each of the antibodies to be tested was then added for incubation for 2 h. The plates were washed 5 times with PBS, then HRP-labeled anti-His antibodies (purchased from GenScript, Cat. No. A00612) were added for incubation for 1 h, and the plates were washed 5 times. A TMB substrate was added at 50 μL/well and incubated at room temperature for 10 min, then a stop solution (1.0 M HCl) was added at 50 μL/well. OD_{450 nm} values were read using an ELISA plate reader (Insight, purchased from PerkinElmer), and the competition rate between the antibodies was calculated according to the OD_{450 nm} values using a formula. The results are shown in FIGS. 12A-12B, the higher the value of the competition rate, the closer the epitopes to which two antibodies bind.

[3] = biological target: T1, human CD33-His (extracellular domain …); test: competitive ELISA vs coated S006-NB146-69 3ug/mL; soluble 25ug/ml
[4] = biological target: T1, human CD33-His (extracellular domain …); test: competitive ELISA vs coated S006-NB146-173 3ug/mL; soluble 25ug/ml
[5] = biological target: T1, human CD33-His (extracellular domain …); test: competitive ELISA vs coated S006-NB146-181 3ug/mL; soluble 25ug/ml
human CD33-his protein = biological target: T2, human CD33-his protein (human, UniProt P20138 18-259); test: competition ELISA, coated human CD33-his, vs Biotin-C33B904 at EC80; antibody 0.98 nM
T2 construct: range 18-259; bought protein; also called hCD33-his; recombinant human CD33-his; not shown: His tag
Method: as §1, with “The” for “In order to assay the binding activity of VHH-Fc to human CD33 protein, a human CD33-his protein (purchased from ACROBiosystems, Cat. No. CD3-H5226) was diluted with PBS to make a final concentration of 2 μg/mL, and then added into a 96-well ELISA plate at 100 μL/well. The”
ELISA plates were coated with 2 μg/mL human CD33-his protein according to the method in Example 5.1; the Biotin-C331B904 antibody was subjected to a gradient dilution from 15 μg/mL, and EC80 values (0.18 μg/mL) were calculated. […] OD_{450 nm} values were read using an ELISA plate reader (Insight, purchased from PerkinElmer). […]

T1 sequence (P20138 18-259 limits assumed): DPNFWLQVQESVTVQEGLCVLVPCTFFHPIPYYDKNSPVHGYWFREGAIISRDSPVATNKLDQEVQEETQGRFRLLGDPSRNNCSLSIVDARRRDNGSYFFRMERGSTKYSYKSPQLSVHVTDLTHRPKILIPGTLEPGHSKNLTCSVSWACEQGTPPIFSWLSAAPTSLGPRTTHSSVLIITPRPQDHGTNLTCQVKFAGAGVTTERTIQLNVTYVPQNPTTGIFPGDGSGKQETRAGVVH
T2 sequence (P20138 18-259 limits assumed): as above

Row | Binder | OD450 at 0.0001 nM [1] [OD450] | OD450 at 0.001 nM [1] [OD450] | OD450 at 0.01 nM [1] [OD450] | OD450 at 0.1 nM [1] [OD450] | OD450 at 1 nM [1] [OD450] | OD450 at 10 nM [1] [OD450] | OD450 at 100 nM [1] [OD450] | inhibition rate [2] [%] | inhibition rate [3] [%] | inhibition rate [4] [%] | inhibition rate [5] [%] | OD450 (Biotin-C33B904 signal) (human CD33-his protein)
1 | B1 | 0.04 | 0.05 | 0.14 | 0.53 | 1.92 | 2.55 | 2.61 | 92 | 99 | 100 | 100 | 
2 | B2 |  |  |  |  |  |  |  |  |  |  |  | 2.31
